Laboratory results published in patent publication US20210188916A1 (INDUSTRY UNIVERSITY COOPERATION FOUNDATION HANYANG …, published 2021).

Legend:
[1] = biological target: T1, ATP5A1 (endogenous, HCT116 human colon cancer cells) (human, UniProt P25705 44-553); experiment: interaction analysis by immunoblot in HCT116 xenograft tumor lysates of treated mice (FIG. 6A, bottom)
T1 construct: Endogenous protein in cell or tumor lysates

[2] = biological target: T2, ATP5C1 (endogenous, HCT116 human colon cancer cells) (human, UniProt P36542 26-298); experiment: as above
T2 construct: Endogenous protein in cell or tumor lysates
T2 sequence: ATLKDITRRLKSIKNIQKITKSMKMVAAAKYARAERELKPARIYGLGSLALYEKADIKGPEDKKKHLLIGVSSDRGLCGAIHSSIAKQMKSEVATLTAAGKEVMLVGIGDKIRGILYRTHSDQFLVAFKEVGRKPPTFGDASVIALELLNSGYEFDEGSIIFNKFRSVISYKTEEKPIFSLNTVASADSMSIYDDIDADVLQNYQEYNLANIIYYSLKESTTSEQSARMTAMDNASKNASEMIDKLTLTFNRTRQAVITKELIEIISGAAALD

T1 sequence (P25705 44-553 limits assumed): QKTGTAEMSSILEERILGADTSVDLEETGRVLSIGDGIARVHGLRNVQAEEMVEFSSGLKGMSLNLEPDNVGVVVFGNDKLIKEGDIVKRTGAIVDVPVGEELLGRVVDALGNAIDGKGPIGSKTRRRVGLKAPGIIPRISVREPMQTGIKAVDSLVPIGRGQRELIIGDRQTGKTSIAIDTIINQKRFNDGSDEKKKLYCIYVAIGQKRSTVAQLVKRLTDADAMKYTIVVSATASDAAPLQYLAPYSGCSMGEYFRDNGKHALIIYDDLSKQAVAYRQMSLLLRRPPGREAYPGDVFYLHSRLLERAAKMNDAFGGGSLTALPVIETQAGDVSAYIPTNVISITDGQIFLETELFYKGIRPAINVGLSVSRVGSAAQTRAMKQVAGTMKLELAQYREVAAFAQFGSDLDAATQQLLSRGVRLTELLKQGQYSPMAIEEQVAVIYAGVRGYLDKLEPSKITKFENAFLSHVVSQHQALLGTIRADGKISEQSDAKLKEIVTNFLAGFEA

B1: rATRAM-GRA8-M/AS (6x His-tagged ATRAM-conjugated multifunctional GRA8 peptide) (peptide)
chain: GLAGLAGLLGLEGLLGLPLGLLEGLWLGLELEGNGLAGLAGLLGLEGLLGLPLGLLEGLWLGLELEGNGGATATTTTTTRGGYRFTVQTTQN
notes: also called rATRAM-G8-M/AS; 6x His-rATRAM-GRA8-M/AS; not shown: N-terminal 6x His tag from the pRSFDuet-1 vector
B1: binds [1]; binds [2].
